Results taken from the Human Domainome abundance scans (Beltran et al. 2025).
± gives the uncertainty stated by the source.

test: abundance fitness (aPCA) (normalised: wild type 0, dead -1); higher = more abundant; growth selection in yeast, the domain comes from the species named; details: Homo sapiens

Substance	abundance fitness
Scaffold attachment factor B1 S51T, Q15424	-0.326 ± 0.081
Scaffold attachment factor B1 S51V, Q15424	-0.118 ± 0.061
Scaffold attachment factor B1 S51W, Q15424	-0.55 ± 0.088
Scaffold attachment factor B1 S51Y, Q15424	-0.472 ± 0.11
Scaffold attachment factor B1 S55A, Q15424	-0.207 ± 0.076
Scaffold attachment factor B1 S55D, Q15424	-0.187 ± 0.082
Scaffold attachment factor B1 S55E, Q15424	-0.092 ± 0.069
Scaffold attachment factor B1 S55F, Q15424	-0.223 ± 0.054
Scaffold attachment factor B1 S55G, Q15424	-0.144 ± 0.066
Scaffold attachment factor B1 S55H, Q15424	-0.291 ± 0.091
Scaffold attachment factor B1 S55I, Q15424	-0.261 ± 0.09
Scaffold attachment factor B1 S55K, Q15424	-0.229 ± 0.093
Scaffold attachment factor B1 S55L, Q15424	-0.147 ± 0.049
Scaffold attachment factor B1 S55M, Q15424	-0.12 ± 0.072
Scaffold attachment factor B1 S55N, Q15424	-0.13 ± 0.08
Scaffold attachment factor B1 S55P, Q15424	-0.429 ± 0.1
Scaffold attachment factor B1 S55Q, Q15424	-0.133 ± 0.059
Scaffold attachment factor B1 S55R, Q15424	-0.083 ± 0.06
Scaffold attachment factor B1 S55T, Q15424	-0.199 ± 0.071
Scaffold attachment factor B1 S55V, Q15424	-0.081 ± 0.055
Scaffold attachment factor B1 S55W, Q15424	-0.287 ± 0.056
Scaffold attachment factor B1 S55Y, Q15424	-0.307 ± 0.08

Substance	abundance fitness
Scaffold attachment factor B1 S79A, Q15424	-0.127 ± 0.065
Scaffold attachment factor B1 S79C, Q15424	-0.286 ± 0.077
Scaffold attachment factor B1 S79E, Q15424	-0.288 ± 0.097
Scaffold attachment factor B1 S79F, Q15424	-0.239 ± 0.08
Scaffold attachment factor B1 S79G, Q15424	-0.119 ± 0.062
Scaffold attachment factor B1 S79H, Q15424	-0.266 ± 0.086
Scaffold attachment factor B1 S79K, Q15424	-0.229 ± 0.1
Scaffold attachment factor B1 S79L, Q15424	-0.118 ± 0.068
Scaffold attachment factor B1 S79M, Q15424	-0.136 ± 0.063
Scaffold attachment factor B1 S79N, Q15424	-0.264 ± 0.091
Scaffold attachment factor B1 S79P, Q15424	-0.108 ± 0.06
Scaffold attachment factor B1 S79Q, Q15424	-0.443 ± 0.11
Scaffold attachment factor B1 S79R, Q15424	-0.25 ± 0.081
Scaffold attachment factor B1 S79T, Q15424	-0.129 ± 0.062
Scaffold attachment factor B1 S79V, Q15424	-0.131 ± 0.06
Scaffold attachment factor B1 S79W, Q15424	-0.409 ± 0.087
Scaffold attachment factor B1 S79Y, Q15424	-0.286 ± 0.078
Scaffold attachment factor B1 T26A, Q15424	-0.282 ± 0.12
Scaffold attachment factor B1 T26C, Q15424	-0.22 ± 0.079
Scaffold attachment factor B1 T26D, Q15424	-0.915 ± 0.36
Scaffold attachment factor B1 T26E, Q15424	-0.242 ± 0.13
Scaffold attachment factor B1 T26G, Q15424	-0.304 ± 0.071

Substance	abundance fitness
Scaffold attachment factor B1 T26I, Q15424	-0.314 ± 0.14
Scaffold attachment factor B1 T26K, Q15424	-0.31 ± 0.14
Scaffold attachment factor B1 T26L, Q15424	-0.518 ± 0.15
Scaffold attachment factor B1 T26M, Q15424	-0.213 ± 0.12
Scaffold attachment factor B1 T26N, Q15424	-0.936 ± 0.37
Scaffold attachment factor B1 T26P, Q15424	-0.565 ± 0.16
Scaffold attachment factor B1 T26Q, Q15424	-1.01 ± 0.34
Scaffold attachment factor B1 T26S, Q15424	-0.452 ± 0.099
Scaffold attachment factor B1 T26V, Q15424	-0.417 ± 0.12
Scaffold attachment factor B1 T26W, Q15424	-0.355 ± 0.075
Scaffold attachment factor B1 T28A, Q15424	-0.519 ± 0.083
Scaffold attachment factor B1 T28D, Q15424	-0.257 ± 0.1
Scaffold attachment factor B1 T28E, Q15424	-0.261 ± 0.08
Scaffold attachment factor B1 T28F, Q15424	-0.142 ± 0.084
Scaffold attachment factor B1 T28G, Q15424	-0.337 ± 0.055
Scaffold attachment factor B1 T28H, Q15424	-0.434 ± 0.09
Scaffold attachment factor B1 T28I, Q15424	-0.038 ± 0.065
Scaffold attachment factor B1 T28L, Q15424	-0.261 ± 0.07
Scaffold attachment factor B1 T28M, Q15424	-0.234 ± 0.083
Scaffold attachment factor B1 T28N, Q15424	-0.196 ± 0.099
Scaffold attachment factor B1 T28P, Q15424	-0.348 ± 0.07
Scaffold attachment factor B1 T28Q, Q15424	-0.485 ± 0.073

Substance	abundance fitness
Scaffold attachment factor B1 T28R, Q15424	-0.301 ± 0.055
Scaffold attachment factor B1 T28S, Q15424	-0.183 ± 0.055
Scaffold attachment factor B1 T28V, Q15424	-0.229 ± 0.056
Scaffold attachment factor B1 T28W, Q15424	-0.455 ± 0.088
Scaffold attachment factor B1 T28Y, Q15424	-0.073 ± 0.068
Scaffold attachment factor B1 T78A, Q15424	-0.345 ± 0.09
Scaffold attachment factor B1 T78C, Q15424	-0.267 ± 0.079
Scaffold attachment factor B1 T78D, Q15424	-0.271 ± 0.086
Scaffold attachment factor B1 T78F, Q15424	-0.323 ± 0.1
Scaffold attachment factor B1 T78H, Q15424	-0.427 ± 0.096
Scaffold attachment factor B1 T78I, Q15424	-0.17 ± 0.069
Scaffold attachment factor B1 T78K, Q15424	-0.131 ± 0.076
Scaffold attachment factor B1 T78L, Q15424	-0.091 ± 0.057
Scaffold attachment factor B1 T78M, Q15424	-0.356 ± 0.086
Scaffold attachment factor B1 T78N, Q15424	-0.182 ± 0.11
Scaffold attachment factor B1 T78P, Q15424	-0.21 ± 0.071
Scaffold attachment factor B1 T78Q, Q15424	-0.173 ± 0.074
Scaffold attachment factor B1 T78R, Q15424	-0.123 ± 0.055
Scaffold attachment factor B1 T78V, Q15424	-0.133 ± 0.07
Scaffold attachment factor B1 T78W, Q15424	-0.279 ± 0.065
Scaffold attachment factor B1 T78Y, Q15424	-0.173 ± 0.075
Scaffold attachment factor B1 V36C, Q15424	-0.281 ± 0.072

Substance	abundance fitness
Scaffold attachment factor B1 V36D, Q15424	-0.125 ± 0.068
Scaffold attachment factor B1 V36E, Q15424	-0.381 ± 0.078
Scaffold attachment factor B1 V36F, Q15424	-0.279 ± 0.084
Scaffold attachment factor B1 V36G, Q15424	-0.348 ± 0.057
Scaffold attachment factor B1 V36H, Q15424	-0.409 ± 0.098
Scaffold attachment factor B1 V36K, Q15424	-0.19 ± 0.078
Scaffold attachment factor B1 V36L, Q15424	-0.063 ± 0.053
Scaffold attachment factor B1 V36M, Q15424	-0.031 ± 0.065
Scaffold attachment factor B1 V36N, Q15424	-0.275 ± 0.064
Scaffold attachment factor B1 V36P, Q15424	-0.281 ± 0.087
Scaffold attachment factor B1 V36Q, Q15424	-0.417 ± 0.085
Scaffold attachment factor B1 V36R, Q15424	-0.258 ± 0.052
Scaffold attachment factor B1 V36T, Q15424	-0.134 ± 0.082
Scaffold attachment factor B1 V36W, Q15424	-0.37 ± 0.07
Scaffold attachment factor B1 V36Y, Q15424	-0.366 ± 0.072
Scaffold attachment factor B1 V48C, Q15424	-0.133 ± 0.07
Scaffold attachment factor B1 V48D, Q15424	-0.768 ± 0.11
Scaffold attachment factor B1 V48E, Q15424	-0.231 ± 0.075
Scaffold attachment factor B1 V48F, Q15424	-0.157 ± 0.085
Scaffold attachment factor B1 V48G, Q15424	-0.195 ± 0.057
Scaffold attachment factor B1 V48H, Q15424	-0.125 ± 0.08
Scaffold attachment factor B1 V48K, Q15424	-0.118 ± 0.095
